The source of these data is paper PMC5737516.

Where a chain is given by its changes, count along the chain named. Where two headings read alike, the source gives them in different places.

Experiment in all cases: pull-down
The target of data set [1] is T1, M1BP (UniProt Q9VHM3 1-418).
T1 sequence: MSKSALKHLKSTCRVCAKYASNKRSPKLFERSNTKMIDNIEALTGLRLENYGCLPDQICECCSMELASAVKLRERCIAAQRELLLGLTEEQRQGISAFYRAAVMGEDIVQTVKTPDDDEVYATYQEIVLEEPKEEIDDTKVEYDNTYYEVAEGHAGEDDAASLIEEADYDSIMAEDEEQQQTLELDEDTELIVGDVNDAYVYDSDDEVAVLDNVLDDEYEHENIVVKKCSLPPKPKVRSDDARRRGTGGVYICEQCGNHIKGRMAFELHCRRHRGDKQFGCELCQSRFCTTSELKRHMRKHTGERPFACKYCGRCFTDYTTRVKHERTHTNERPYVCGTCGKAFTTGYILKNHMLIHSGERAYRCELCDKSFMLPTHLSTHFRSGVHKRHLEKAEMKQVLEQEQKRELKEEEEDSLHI

Data set [2] concerns the target T2, M1BP;TRF2 (Drosophila melanogaster?;Drosophila …, UniProt Q9VHM3;Q9XZD9 1-418;1-632, |).
T2 sequence 1: T1 sequence
T2 sequence 2: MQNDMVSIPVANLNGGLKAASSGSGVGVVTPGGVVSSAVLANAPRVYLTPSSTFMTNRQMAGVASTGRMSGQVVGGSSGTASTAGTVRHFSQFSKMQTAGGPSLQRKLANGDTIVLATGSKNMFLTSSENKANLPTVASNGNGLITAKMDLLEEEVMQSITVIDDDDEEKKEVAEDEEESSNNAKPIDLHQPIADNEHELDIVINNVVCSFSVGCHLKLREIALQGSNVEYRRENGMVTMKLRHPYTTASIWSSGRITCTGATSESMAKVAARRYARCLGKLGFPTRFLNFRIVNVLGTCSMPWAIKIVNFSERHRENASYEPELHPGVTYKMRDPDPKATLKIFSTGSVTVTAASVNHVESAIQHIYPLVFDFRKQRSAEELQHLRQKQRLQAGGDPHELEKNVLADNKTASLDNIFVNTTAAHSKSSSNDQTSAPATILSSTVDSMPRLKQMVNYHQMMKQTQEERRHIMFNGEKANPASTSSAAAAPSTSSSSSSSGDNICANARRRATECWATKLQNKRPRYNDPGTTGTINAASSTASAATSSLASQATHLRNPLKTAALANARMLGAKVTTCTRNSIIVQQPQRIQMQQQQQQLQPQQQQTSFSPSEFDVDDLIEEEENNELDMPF

Data set [3] has as its target T2, M1BP;TRF2. The source holds these as a separate data set.

B1: RpL30 wtMotif1 (-52 to +8) (dsDNA)
DNA 1: CCCGTCGGTCACACCAACACAAACGTGGTACCCATTTCCGCCTGTTCTTCCTCTTTCTTT
DNA 2: AAAGAAAGAGGAAGAACAGGCGGAAATGGGTACCACGTTTGTGTTGGTGTGACCGACGGG
B1: the binding result in data set [1] and in data set [2] was “binds” in each case.

B2: RpL30 mutMotif1 (-52 to +8) (dsDNA)
DNA 1: B1 DNA 1 with G7C, C12G, C14G
DNA 2: B1 DNA 2 with G47C, G49C, C54G
For the molecule B2, the binding result in data set [3] and in data set [1] was “no binding” in each case.

B3: RpLP1 wtMotif1 (-36 to +14) (dsDNA)
DNA 1: TTCGTCATCGGCGCGGTCACACTGCATATCAACTGCTCTTTCCGGTTTAG
DNA 2: CTAAACCGGAAAGAGCAGTTGATATGCAGTGTGACCGCGCCGATGACGAA
For B3, the binding result in data set [1] and in data set [2] was “binds” in each case.

B4: RpLP1 mutMotif1 (-36 to +14) (dsDNA)
DNA 1: B3 DNA 1 with G15C, C20G, C22G
DNA 2: B3 DNA 2 with G29C, G31C, C36G
Regarding B4, the binding result in data set [3] and in data set [1] was “no binding” each time.
